Source: publication PMC12416549 (2024)
Where a chain is given by its changes, count along the chain named. In names and notes the source's numbering stands.

T1: TNFR1 (Homo sapiens, UniProt P19438)
T1 chain: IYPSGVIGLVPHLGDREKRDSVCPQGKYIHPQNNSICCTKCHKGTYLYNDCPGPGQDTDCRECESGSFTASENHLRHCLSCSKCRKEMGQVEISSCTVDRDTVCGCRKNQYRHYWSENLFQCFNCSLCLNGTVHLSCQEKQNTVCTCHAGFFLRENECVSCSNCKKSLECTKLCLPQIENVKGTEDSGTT

B1: K16A (designed binder)
chain: SMEEEVEKAAKEYEKAKKEAIEKHLEKLKAKDKEAAERFLKELEEAAKEYAKDEAKTMSEEEAKRRAKKYKEKVLLSELSEEEQKEIKEAEEKLVRTILKYVEEAAK
B2: A20G (designed binder)
chain: B1 chain with A16K, A20G
B3: K71Q (designed binder)
chain: B1 chain with A16K, K71Q
B4: A67H (designed binder)
chain: B1 chain with A16K, A67H
B5: L99T (designed binder)
chain: B1 chain with A16K, L99T
B6: K29M (designed binder)
chain: B1 chain with A16K, K29M
B7: R38A (designed binder)
chain: B1 chain with A16K, R38A
B8: A106F (designed binder)
chain: B1 chain with A16K, A106F
B9: K41R (designed binder)
chain: B1 chain with A16K, K41R
B10: E7R (designed binder)
chain: B1 chain with E7R, A16K
B11: Q84R (designed binder)
chain: B1 chain with A16K, Q84R
B12: A90R (designed binder)
chain: B1 chain with A16K, A90R
B13: D32A (designed binder)
chain: B1 chain with A16K, D32A
B14: K41C (designed binder)
chain: B1 chain with A16K, K41C
B15: Y50D (designed binder)
chain: B1 chain with A16K, Y50D
B16: E62R (designed binder)
chain: B1 chain with A16K, E62R
B17: E89V (designed binder)
chain: B1 chain with A16K, E89V
B18: E7C (designed binder)
chain: B1 chain with E7C, A16K
B19: H24E (designed binder)
chain: B1 chain with A16K, H24E
B20: K69A (designed binder)
chain: B1 chain with A16K, K69A
B21: I21H (designed binder)
chain: B1 chain with A16K, I21H
B22: T57G (designed binder)
chain: B1 chain with A16K, T57G
B23: E42G (designed binder)
chain: B1 chain with A16K, E42G
B24: A51L (designed binder)
chain: B1 chain with A16K, A51L

Target: T1, TNFR1
Test: yeast display SC50

Binder | apparent Kd (screen) [nM]
B1 | 2.73
B2 | 2.73
B3 | 0.446
B4 | 10.4
B5 | 5.31
B6 | 0.869
B7 | 2.73
B8 | 13.8
B9 | 0.869
B10 | 5.84
B11 | 1.4
B12 | 0.446
B13 | 1.4
B14 | 0.49
B15 | 7.78
B16 | 0.49
B17 | 2.73
B18 | 6.43
B19 | 0.49
B20 | 0.49
B21 | 1.05
B22 | 10.4
B23 | 12.5
B24 | 2.73
